Experimental data as given in US20220218001A1, “REDOX ENZYMES IN ANIMAL FEED COMPOSITIONS” (Novozymes A/S, priority 2019, published 2022).
Read-outs that look alike come from different tables or passages of the source.

Key:
[1] = Growth performance of early weaned piglets fed SOD and CAT; format: in vivo
Procedure: The effect of antioxidant enzymes (SOD and CAT) alone at different doses and in combination on the growth performance of early weaned piglets was evaluated in a trial run. A total of eight treatments were tested during the study: 6 test groups: SOD (Product A, SEQ ID No. 1 at 1250 and 2500 U/kg), CAT (Product B, SEQ ID NO 7 and Product C, […]; […]); were compared against a Positive Control feed (fed with Avilamycin at 90.7 g/lb) and a Negative Control (standard ration). Each of treatments contained 12 replicates per treatment randomly assigned and containing 5 male piglets per replicate for a total number of 480 animals on study. Piglets were randomly assigned to treatments on Trial Day 0 (post-weaning at 21 days of age). At 42 days of age, live performance (growth weight gain and feed conversion) was determined. All rations were formulated with an increase of approximately 5-6% additional crude protein above normal commercial levels. Blood samples were collected at day 0, 14 and 42 to evaluate oxidative stress parameters at DSM. Gut tissue samples at the duodenum and ileum to evaluate gene expression linked to oxidative stress, and intestinal content (ileum and caecum), to study the microbiome population, were collected from 12 animals at the beginning of the trial (baseline) and one animal per pen (12 piglets×8 treatments) at day 14 and at day 42.
The commercial-simulated test model employed in this study used piglets reared under a normal swine industry Starter diet (Trial Day 0-21) and Grower diet (Trial Day 21-42), reared on slatted floors. Ration formulations were conducted via computer-generated linear regression program that simulates formulations conducted during practical swine production techniques. Treatments were tested in male piglets. Piglets were continuously fed their experimental diets from time of placement on Trial Day 0 to Trial Day 42.
Piglets were weighed and randomly placed into each pen on Trial Day 0 and fed their respective diets. Each pen had sufficient floor density, feeder and waterer space for each grow-out area for the piglets. Following 42 days of grow-out, piglets were weighed, feed consumption determined, and feed conversion (feed consumed/[…]) calculated.
A total of 500 male piglets (a sufficient number to ensure availability of at least 480 healthy male piglets for the conduct of the study) were obtained from a swine breeder on Trial Day 0 (upon weaning, when the piglets were 21 days of age). Piglets were fed their respective treatment feed ad libitum from Trial Day 0 to Trial Day 42.
Each experimental test unit of swine pens was housed in separated pens, located in a room containing forced air heaters with a cross-house ventilation system. Piglets were placed in a 6 ft×6 ft pen floor area with a minimum of 9.0 ft^2 per piglet (without feeder and waterer space) provided. At least two nipple drinkers per pen (via well water) provided water. Piglets were observed daily for overall health, behavior and/or evidence of toxicity, and environmental conditions. Temperature in the test facility was checked daily. Drinking water and feed were confirmed to be provided ad libitum. No type of medication (other than test material) was administered during the entire feeding period.
Live performance body weights and feed intakes were collected on Days 0, 14, 21, and 42 during the growing period. Weight gain, feed intake, feed:gain ratio (feed efficiency) were calculated for 0-42 days of age between weaning and Trial Day 42. Differences between piglets fed control and test groups were statistically evaluated at P<0.05 in a typical ANOVA analysis of variance test model, employing Treatment×Replicate RCB (Randomized Complete Block). Control group was considered to be the following: Treatment 2, containing Avilamycin at 90.7 g/lb.
Diets were fed in two feed phases: Starter diet (0-21 days of age) and Grower diet (21-42 days of age). All diets were offered ad libitum, without restriction. […]

[2] = Thermal stability of superoxide dismutases at different pH, Tm unfolding temperature (method of Example 11); format: physicochemical
Procedure: Tm: The term Tm, as used in the Examples refers to the temperature at which 50% of the protein molecules are unfolded and 50% of the protein molecules are folded.
Test were performed on the super oxide dismutases of the invention to measure the temperature at different acidity/alkalinity to determine the temperature at which the polypeptide unfolds and denatures. […] A further embodiment is directed to an animal feed additive comprising a fungal superoxide dismutase thermally stable at pH 7, when measured according to the method described in Example 11, such that protein unfolding (Tm) is 45° C. or more.

pepsin [3] = target: T1, pepsin (Sus scrofa, UniProt P00791); assay: Gastric stability of superoxide dismutases (method of Example 10, gastric treatment with pepsin); format: in vitro ADME
T1 construct: purchased Sigma P7000; host or cells: porcine gastric mucosa (natural source)
Procedure: retains only 26% of its activity upon gastric treatment in the presence of pepsin.
Two commercial SODs were tested as references: SOD-Mn, from E. coli Sigma S5639 with a activity of 10240 U/mg EP and only 26% activity left after gastric press for 30 min; and SOD-Cu/Zn from Bovine expressed in E. coli Sigma S9697 with activity of 6108 U/mg EP and only 35% activity left after gastric press for 30 min.

pepsin [4] = target: T1, pepsin; assay: as above; format: in vitro ADME; remark: listed apart in the source
[5] = Superoxide dismutase activity (method of Example 9, pH 7.8); format: biochemical; settings: SOD activity
[6] = Piglet trial, growth performance d0-42; format: in vivo; settings: piglets, days 0-42
From the text: FIG. 17: illustrates the Conversion Ratio (FCR) in piglets from days 0-42. There was significant difference observed in growth performance between positive and negative control.

T1 sequence (P00791 60-385): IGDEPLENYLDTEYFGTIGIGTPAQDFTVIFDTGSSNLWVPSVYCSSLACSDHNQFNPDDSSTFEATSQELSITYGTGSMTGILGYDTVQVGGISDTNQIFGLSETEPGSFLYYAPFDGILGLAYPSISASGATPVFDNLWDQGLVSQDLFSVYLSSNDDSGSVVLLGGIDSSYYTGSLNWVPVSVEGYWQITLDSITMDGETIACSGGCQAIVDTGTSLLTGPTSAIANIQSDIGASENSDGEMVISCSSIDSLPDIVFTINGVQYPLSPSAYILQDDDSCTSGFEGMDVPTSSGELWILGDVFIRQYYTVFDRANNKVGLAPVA

Question: For `COC[C@H]1O[C@@H](OC2OC[C@@H]3O[C@]4(O[C@H]3[C@H]2OC(=O)C(C)C)O[C@H](C)[C@@](O)(C(C)=O)[C@@H]2OCO[C@H]24)[C@@H](OC)[C@@H](O)[C@@H]1O[C@@H]1O[C@H](C)[C@H](OC)[C@H](O[C@H]2C[C@@]3(C)OC4(C[C@@H](O)[C@H](O[C@H]5C[C@@H](O)[C@H](OC(=O)c6c(C)c(Cl)c(O)c(Cl)c6OC)[C@@H](C)O5)[C@@H](C)O4)O[C@@H]3[C@@H](C)O2)[C@H]1O` (stereo partly drawn) [T2, Avilamycin], which “feed conversion (FCR)” value ([1]; d0-d42, vs Negative Control, SOD+CAT 400:100 U/kg) is on record?
Answer: improved

Question: And the “Average Body Wt. Gain (kg) Day 0-14” value ([1]; piglets, day 0-14)?
Answer: 3.720 kg

Question: And the “Feed Conversion Corrected Day 0-14” value ([1]; piglets, day 0-14)?
Answer: 1.215

Question: And the “Feed Intake (kg/pig) Day 0-14” value ([1]; piglets, day 0-14)?
Answer: 4.52 kg/pig

Question: And the “Mortality % Day 0-14” value ([1]; piglets, day 0-14)?
Answer: 0.000%

Question: And the “Average Body Wt. (kg) Day 14” value ([1]; piglets, day 14)?
Answer: 9.215 kg

Question: And the “Body Weight Coefficient of Variation (Day 14)” value ([1]; piglets, day 14)?
Answer: 4.700

Question: For “S9697 Bovine Cu/Zn SOD SIGMA: commercially available superoxide dismutase from bovine erythrocytes and expressed in E. coli of sequence A”, which “activity retained at 50° C.” value ([2]; 50° C., method of Example 11) is on record?
Answer: very little

Question: What about the “Tm (unfolding temperature)” value ([2]; pH 3) of the same molecule?
Answer: 50.8 °C

Question: And the “Tm (unfolding temperature)” value ([2]; pH 4)?
Answer: 59.3 °C

Question: And the “Tm (unfolding temperature)” value ([2]; pH 5)?
Answer: 63.9 °C

Question: And the “Tm (unfolding temperature)” value ([2]; pH 6)?
Answer: 66.2 °C

Question: And the “Tm (unfolding temperature)” value ([2]; pH 7)?
Answer: 65.2 °C

Question: What about the “Tm (unfolding temperature)” value ([2]; pH 8) of the same molecule?
Answer: 63.1 °C

Question: What about the “Tm (unfolding temperature)” value ([2]; pH 9) of the same molecule?
Answer: 61.0 °C

Question: What about the “Tm (unfolding temperature)” value ([2]; pH 10) of the same molecule?
Answer: 57.0 °C

Question: What about the “activity left after gastric press for 30 min” value (pepsin [3]) of the same molecule?
Answer: 35%

Question: What about the “activity retained upon gastric treatment in the presence of pepsin” value (pepsin [3]) of the same molecule?
Answer: 26%

Question: What about the “loss of activity under gastric stability studies” value (pepsin [3]) of the same molecule?
Answer: 65%

Question: And the “Gastric stability after 15 min (remaining activity, approx, %)” value (pepsin [4]; 0.25 h)?
Answer: 35%

Question: And the “Relative Activity Unit (U/mg EP)” value [5]?
Answer: 6108 U/mg EP

B1: SEQ ID NO 35: superoxide dismutase; donor Trichoderma rossicum in b755, Trichoderma sp-44174 in b566 (protein)
chain: MRASGILTVLSLAVSSCVAEKDAPIVTGNPHSVEYKATLPKKPFFSNAALVGNVKGYVSAVAAPSGKGVRFSVQFENFPKSGGPFMYHIHEEPATNGNCTSTLAHLDPYHRGETPACDSSKPETCQVGDLSGKYGKITSDPFVAEYFDLYTSLQPGSPAFFGNRSIVVHYANKTRLTCANFAKLPVSDTATKAHTTTSAHHTVIHGPAASGGRHNTTSSHNITGPHYTTGSHHTTDVSPTGSLNPTGIVTAPGSPTTPATFTTVAAGGSASATSSIVPFPGAASGNRVSLALLSGVVAAMFFSL
modifications: Trichoderma sp-44174
notes: superoxide dismutase; donor Trichoderma rossicum, Trichoderma sp-44174 in b566
Question: For B1, which “activity retained under gastric stability studies” value (pepsin [3]) is on record?
Answer: at least 40%

Question: What about the “Relative Activity Unit (U/mg EP)” value [5] of the same molecule?
Answer: ~3000 U/mg EP

B2: SEQ ID NO 37: superoxide dismutase; donor Trichoderma sp-54723 in b755, Trichoderma rossicum in b566 (protein, listed as Trichoderma rossicum)
chain: MRASGILAVLSLAVSGCIAEKDAPIVTGNPHSVEYKATLPKKPFFSNAALVGNVKGYVSAVAAPSGKGVRFSVQFENFPKSGGPFMYHIHEEPATNGNCTSTLAHLDPYHRGETPACDSSKPETCQVGDLSGKYGKITSDPFVAEYFDLYTSLQPGSPAFFGNRSIVVHYANKTRLTCANFAKLPVSDTATKAHTTTSAHHTVIHGPAASGGRHNTTSSHNITGPHYTTGSHHTTDVSPTGSLNPTGIVTAPGSPTTPATFTTVAAGGSASATSSIVPFPGAASGNRVSLALLSGVVAAMFFSL
Question: For B2, which “activity retained under gastric stability studies” value (pepsin [3]) is on record?
Answer: at least 40%

B3: SEQ ID NO 18: superoxide dismutase from Cladobotryum sp. (protein)
chain: MARQGLFLASLLIFPFASCAASEDPTGSKPQFASIPDSQQALLGSFSSTMSVSTFSLPALPYAYDALEPSISAQIMELHHSKHHQTYVNNLNNALKSYFVAISANDVPSQIALQAAVKFNGGGHINHSLFWENLCPATSPDADPQSAPTLAAEISKTWGSLEGFKDAMSKALLGLQGSGWGWLVKDGRALRIVTTKDQDPVVGGEVPIFGIDMWEHAYYLQYLNGKAAYVENIWKVINWKTAERRFIGDRDDAFKILKASI
modifications: Cladobotryum sp
Question: For B3, which “activity retained under gastric stability studies” value (pepsin [3]) is on record?
Answer: at least 40%

B4: S5639 from Sigma Mn-SOD Escherichia coli: commercially available bacterial (from E. coli) Mn-SOD (protein, UniProt P00448 2-206, looked up)
Superoxide dismutase [Mn]: SYTLPSLPYAYDALEPHFDKQTMEIHHTKHHQTYVNNANAALESLPEFANLPVEELITKLDQLPADKKTVLRNNAGGHANHSLFWKGLKKGTTLQGDLKAAIERDFGSVDNFKAEFEKAAASRFGSGWAWLVLKGDKLAVVSTANQDSPLMGEAISGASGFPIMGLDVWEHAYYLKFQNRRPDYIKEFWNVVNWDEAAARFAAKK
Question: For B4, which “loss of activity under gastric stability studies” value (pepsin [3]) is on record?
Answer: 57%

Question: And the “activity left after gastric press for 30 min” value (pepsin [3]; 30 min)?
Answer: 26%

Question: And the “Gastric stability after 15 min (remaining activity, approx, %)” value (pepsin [4]; after 15 min, method of Example 10)?
Answer: 26%

Question: What about the “Relative Activity Unit (U/mg EP)” value [5] of the same molecule?
Answer: 10240 U/mg EP

B5: Catalase: Catalase fed alone in the piglet trial of FIG. 17 (protein)
chain: MRHFWLLPAVAGIAGAQCPYLSGEMSFTQEQDNAGDTIEVTEQTIDNTLYVNDTGSYMTTDFGTPISDQYSLKAGRRGPTLLEDFIFRQKLQRFDHERVPERVVHARGAGAYGTFKSYADWSNVTAADFLSANEKETPMFCRFSTVVGFRGSVDTARDVHGHACRFYTDEGNYDIVGINFAPFFIQDAIQFPDLVHAIKPMPNNEIPQAATAHTSAWDFFSQQSTALHSALWLMSGNGIPRSFRHMNGYGVHSFRFVAANGTSKVVRYRWKSQQGVASLVWEEAQAAAGKNSDYHRQDLYNAIANGHYPKYELQAQIMDEADMLRFGFDLLDPTKLVPEEVVPYTPLGMMELNANPTNYFAEVEQAGFQPGHVVPGIDFTDDPLLQGRLFSYLDTQLTRHGGPNFEQIPVNRPRKPVHNNNRDGFGQQQIPTNNWAYTPNTMSNGYPMQANQTHGHGFFTSPYRYASGHLIREPSPTFHDHWSQPAMFWNSLIPAEQQMVVNAIVFENSKVNSPHVRKNVVNQLNMVNNNLAVRVARGLGLDEPSPNPTYYTSNKTSNVGTFGKPLLSIEGLQVGFLASNSHPESIKQGQAMAAQFSAAGVDLNIVTEAYADGVNTTYALSDAIDFDALIIADGVQSLFASPSLANQMNSTATSTLYPPARPYQILVDSFRYGKPVAAVGSGSAALKNAGIDTSRSGVYTGSSETTENIAKEVLKGLYTFRFVDRFALDE
modifications: Aspergillus niger; mat_peptide (1)..(740)
Question: Which “Feed Conversion Ratio (FCR)” value [6] does the source give for B5 here?
Answer: significantly improved the FCR
